Reference: patent US20150344570A1 (published 2015)

Legend:
FcγRIIa H = target: T1, FcγRIIa H (human, UniProt P12318 34-217); test: SPR (Biacore), antibody captured, FcγR as analyte; binding relative to GpH7-A5/GpH7-B3/GpL16-k0 = 100
T1 construct: extracellular domain; also called FcγRIIa type H; 2aH; not shown: His tag at the C terminus
T1 sequence (looked up): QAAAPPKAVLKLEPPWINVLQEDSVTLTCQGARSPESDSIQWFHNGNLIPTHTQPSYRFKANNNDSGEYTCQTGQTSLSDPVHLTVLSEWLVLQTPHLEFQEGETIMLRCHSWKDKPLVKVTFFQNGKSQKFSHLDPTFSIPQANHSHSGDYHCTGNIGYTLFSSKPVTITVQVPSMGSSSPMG
Description: (§1) The heterodimerized antibodies He Abs in which one of the H chains was introduced with an alteration were assayed for their binding activities to each activating FcγR and inhibitory FcγR according to the method described in Example 4. […] The activating FcγRs in FIGS. 26, 27, 28, and 29 are FcγRIa, FcγRIIa (R), FcγRIIa (H), and FcγRIIIa, respectively.
(§2) Analysis of interaction between objective antibody and the FcγR was carried out using Biacore T100 (GE Healthcare). HBS-EP+ (GE Healthcare) was used as the running buffer, and the measurement temperature was set to 25° C. Chips produced by immobilizing the antigen peptide by the amine coupling method to a Series S Sencor Chip CM5 (GE Healthcare), or alternatively, chips produced by allowing preliminarily biotinylated antigen peptides to interact with and immobilize onto a Series S Sensor Chip SA (certified) (GE Healthcare) were used. Antibodies of interest were captured onto an antigen peptide-immobilized chip, and allowed to interact to each FcγR diluted with running buffer. To regenerate and repeatedly use the chip, the antibodies captured on the chip were washed off by reacting 10 mM glycine-HCl, pH 1.5.

FcγRIIb = target: T2, FcγRIIb (human, UniProt P31994 43-217); test: as above
T2 construct: extracellular domain; also called 2b; not shown: His tag at the C terminus
T2 sequence (looked up): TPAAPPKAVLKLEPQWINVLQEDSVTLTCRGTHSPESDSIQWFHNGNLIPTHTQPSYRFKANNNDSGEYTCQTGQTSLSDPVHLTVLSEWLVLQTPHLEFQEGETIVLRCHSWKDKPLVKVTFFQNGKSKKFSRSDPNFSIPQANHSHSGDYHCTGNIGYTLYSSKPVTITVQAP
Description: as §1, §2

[1] = target: T3, FcγRIIa H (FcgRIIa type H, His at position 131), extracellular domain with C-terminal His tag (human, UniProt P12318 34-217); test: SPR (Biacore), relative binding, GpH7-A5/GpH7-B3/GpL16-k0 = 100
T3 construct: extracellular domain; also called 2aH; FcgRIIa H; not shown: His tag at the C terminus
T3 sequence (looked up): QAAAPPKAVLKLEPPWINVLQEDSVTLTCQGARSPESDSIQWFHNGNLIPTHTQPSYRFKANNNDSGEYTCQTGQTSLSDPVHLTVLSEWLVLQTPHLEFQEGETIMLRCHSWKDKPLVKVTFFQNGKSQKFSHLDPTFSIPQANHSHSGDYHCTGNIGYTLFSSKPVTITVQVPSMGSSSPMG

[2] = target: T4, FcγRIIb, extracellular domain with C-terminal His tag (human, UniProt P31994 43-217); test: as above
T4 construct: extracellular domain; also called 2b; FcgRIIb; not shown: His tag at the C terminus
T4 sequence (looked up): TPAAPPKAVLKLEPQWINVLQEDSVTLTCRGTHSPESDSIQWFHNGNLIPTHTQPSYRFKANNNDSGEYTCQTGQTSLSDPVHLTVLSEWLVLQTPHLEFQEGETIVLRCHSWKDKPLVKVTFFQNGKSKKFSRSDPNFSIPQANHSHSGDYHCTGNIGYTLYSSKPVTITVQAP

B1: GpH7-A5/GpH7-B3 variant E333_13S/GpL16-k0 (antibody, human IgG1, kappa)
heavy 1: not shown
heavy 2: not shown
light: DIVMTQSPLSLPVTPGEPASISCQASESLVHSNRNTYLHWYLQKPGQSPQLLIYKVSNRFSGVPDRFSGSGSGTDFTLKISRVEAEDVGVYYCSQNTHVPPTFGQGTKVEIERTVAAPSVFIFPPSDEQLKSGTASVVCLLNNFYPREAKVQWKVDNALQSGNSQESVTEQDSKDSTYSLSSTLTLSKADYEKHKVYACEVTHQGLSSPVTKSFNRGEC
notes: Heterodimerized IgG1; mutation in the GpH7-B3 chain only; also called He Ab
For B1, the He/Con_2aH (FcγRIIa H) was 101 % of control and the He/Con_2b (FcγRIIb) was 81.8 % of control.

B2: GpH7-A5/GpH7-B3 variant E333_14T/GpL16-k0 (antibody, human IgG1, kappa)
heavy 1: not shown
heavy 2: not shown
light: DIVMTQSPLSLPVTPGEPASISCQASESLVHSNRNTYLHWYLQKPGQSPQLLIYKVSNRFSGVPDRFSGSGSGTDFTLKISRVEAEDVGVYYCSQNTHVPPTFGQGTKVEIERTVAAPSVFIFPPSDEQLKSGTASVVCLLNNFYPREAKVQWKVDNALQSGNSQESVTEQDSKDSTYSLSSTLTLSKADYEKHKVYACEVTHQGLSSPVTKSFNRGEC
notes: as for B1
In the case of B2, the He/Con_2aH (FcγRIIa H) is reported as 100 % of control and the He/Con_2b (FcγRIIb) is reported as 86.1 % of control.

B3: GpH7-A5/GpH7-B3 variant P331_07I/GpL16-k0 (antibody, human IgG1, kappa)
heavy 1: not shown
heavy 2: not shown
light: DIVMTQSPLSLPVTPGEPASISCQASESLVHSNRNTYLHWYLQKPGQSPQLLIYKVSNRFSGVPDRFSGSGSGTDFTLKISRVEAEDVGVYYCSQNTHVPPTFGQGTKVEIERTVAAPSVFIFPPSDEQLKSGTASVVCLLNNFYPREAKVQWKVDNALQSGNSQESVTEQDSKDSTYSLSSTLTLSKADYEKHKVYACEVTHQGLSSPVTKSFNRGEC
notes: He Ab; alteration in one H chain only; also called He Ab
With B3 the He/Con_2aH [1] was 77.4 % of control and the He/Con_2b [2] was 114 % of control.

B4: GpH7-A5/GpH7-B3 variant P331_10E/GpL16-k0 (antibody, human IgG1, kappa)
heavy 1: not shown
heavy 2: not shown
light: DIVMTQSPLSLPVTPGEPASISCQASESLVHSNRNTYLHWYLQKPGQSPQLLIYKVSNRFSGVPDRFSGSGSGTDFTLKISRVEAEDVGVYYCSQNTHVPPTFGQGTKVEIERTVAAPSVFIFPPSDEQLKSGTASVVCLLNNFYPREAKVQWKVDNALQSGNSQESVTEQDSKDSTYSLSSTLTLSKADYEKHKVYACEVTHQGLSSPVTKSFNRGEC
notes: as for B3
B4 was tested, and the He/Con_2aH [1] was 87.1 % of control and the He/Con_2b [2] was 116 % of control.

B5: GpH7-A5/GpH7-B3 variant P331_15Y/GpL16-k0 (antibody, human IgG1, kappa)
heavy 1: not shown
heavy 2: not shown
light: DIVMTQSPLSLPVTPGEPASISCQASESLVHSNRNTYLHWYLQKPGQSPQLLIYKVSNRFSGVPDRFSGSGSGTDFTLKISRVEAEDVGVYYCSQNTHVPPTFGQGTKVEIERTVAAPSVFIFPPSDEQLKSGTASVVCLLNNFYPREAKVQWKVDNALQSGNSQESVTEQDSKDSTYSLSSTLTLSKADYEKHKVYACEVTHQGLSSPVTKSFNRGEC
notes: as for B3
With B5 the He/Con_2aH [1] was 86 % of control and the He/Con_2b [2] was 114 % of control.

B6: GpH7-A5/GpH7-B3 variant P331_16H/GpL16-k0 (antibody, human IgG1, kappa)
heavy 1: not shown
heavy 2: not shown
light: DIVMTQSPLSLPVTPGEPASISCQASESLVHSNRNTYLHWYLQKPGQSPQLLIYKVSNRFSGVPDRFSGSGSGTDFTLKISRVEAEDVGVYYCSQNTHVPPTFGQGTKVEIERTVAAPSVFIFPPSDEQLKSGTASVVCLLNNFYPREAKVQWKVDNALQSGNSQESVTEQDSKDSTYSLSSTLTLSKADYEKHKVYACEVTHQGLSSPVTKSFNRGEC
notes: as for B3
B6 was tested, and the He/Con_2aH [1] was 84.5 % of control and the He/Con_2b [2] was 116 % of control.

B7: GpH7-A5/GpH7-B3 variant P331_20W/GpL16-k0 (antibody, human IgG1, kappa)
heavy 1: not shown
heavy 2: not shown
light: DIVMTQSPLSLPVTPGEPASISCQASESLVHSNRNTYLHWYLQKPGQSPQLLIYKVSNRFSGVPDRFSGSGSGTDFTLKISRVEAEDVGVYYCSQNTHVPPTFGQGTKVEIERTVAAPSVFIFPPSDEQLKSGTASVVCLLNNFYPREAKVQWKVDNALQSGNSQESVTEQDSKDSTYSLSSTLTLSKADYEKHKVYACEVTHQGLSSPVTKSFNRGEC
notes: as for B3
With B7 the He/Con_2aH [1] was 82.8 % of control and the He/Con_2b [2] was 111 % of control.

B8: GpH7-A5/GpH7-B3 variant S337_15Y/GpL16-k0 (antibody, human IgG1, kappa)
heavy 1: not shown
heavy 2: not shown
light: DIVMTQSPLSLPVTPGEPASISCQASESLVHSNRNTYLHWYLQKPGQSPQLLIYKVSNRFSGVPDRFSGSGSGTDFTLKISRVEAEDVGVYYCSQNTHVPPTFGQGTKVEIERTVAAPSVFIFPPSDEQLKSGTASVVCLLNNFYPREAKVQWKVDNALQSGNSQESVTEQDSKDSTYSLSSTLTLSKADYEKHKVYACEVTHQGLSSPVTKSFNRGEC
notes: as for B3
With B8 the He/Con_2aH [1] was 99.4 % of control and the He/Con_2b [2] was 100 % of control.

B9: GpH7-A5/GpH7-B3 variant S337_18N/GpL16-k0 (antibody, human IgG1, kappa)
heavy 1: not shown
heavy 2: not shown
light: DIVMTQSPLSLPVTPGEPASISCQASESLVHSNRNTYLHWYLQKPGQSPQLLIYKVSNRFSGVPDRFSGSGSGTDFTLKISRVEAEDVGVYYCSQNTHVPPTFGQGTKVEIERTVAAPSVFIFPPSDEQLKSGTASVVCLLNNFYPREAKVQWKVDNALQSGNSQESVTEQDSKDSTYSLSSTLTLSKADYEKHKVYACEVTHQGLSSPVTKSFNRGEC
notes: as for B3
With B9 the He/Con_2aH [1] was 99.8 % of control and the He/Con_2b [2] was 103 % of control.
